Test results from PMC8233153, “Peters plus syndrome mutations affect the function and stability of human β1,3-glucosyltransferase” (The Journal of Biological Chemistry, 2021).
Positions count from the first letter of the chain named. Names and notes keep the numbering of the source.

B1: B3GLCTΔREEL (human B3GLCT without REEL motif) (Homo sapiens) (protein)
chain: SEDTKKEVKQSQDLEKSGISRKNDIDLKGIVFVIQSQSNSFHAKRAEQLKKSILKQAADLTQELPSVLLLHQLAKQEGAWTILPLLPHFSVTYSRNSSWIFFCEEETRIQIPKLLETLRRYDPSKEWFLGKALHDEEATIIHHYAFSENPTVFKYPDFAAGWALSIPLVNKLTKRLKSESLKSDFTIDLKHEIALYIWDKGGGPPLTPVPEFCTNDVDFYCATTFHSFLPLCRKPVKKKDIFVAVKTCKKFHGDRIPIVKQTWESQASLIEYYSDYTENSIPTVDLGIPNTDRGHCGKTFAILERFLNRSQDKTAWLVIVDDDTLISISRLQHLLSCYDSGEPVFLGERYGYGLGTGGYSYITGGGGMVFSREAVRRLLASKCRCYSNDAPDDMVLGMCFSGLGIPVTHSPLFHQARPVDYPKDYLSHQVPISFHKHWNIDPVKVYFTWLAPSDEDKARQETQKGF
notes: secreted from pSecTag2/HygroC, C-terminal Myc-His6 tag kept; native signal peptide replaced by vector signal; C-terminal ER-retention motif REEL (last 4 of 498 residues) removed; forward primer starts near SEDTKKEV; HEK293T medium, Ni-NTA
B2: B3GLCTΔREEL (human B3GLCT without REEL motif) (Homo sapiens; Q457R) (protein)
chain: B1 chain with Q429R
notes: as for B1
B3: B3GLCTΔREEL (human B3GLCT without REEL motif) (Homo sapiens; V245M) (protein)
chain: B1 chain with V217M
notes: as for B1
B4: B3GLCTΔREEL (human B3GLCT without REEL motif) (Homo sapiens; R337H) (protein)
chain: B1 chain with R309H
notes: as for B1
B5: B3GLCTΔREEL (human B3GLCT without REEL motif) (Homo sapiens; T179S) (protein)
chain: B1 chain with T151S
notes: as for B1

target: O-fucosylated TSR3 from human thrombospondin-1 (Fuc-O-TSR3) (human); experiment: not given; conditions: not given

K (half) (μM) for the acceptor substrate Fuc-O-TSR3 in the in vitro glucosyltransferase assay (UDP-Glo; allosteric sigmoidal fit) | Molecule
5.73 µM | human B3GLCTΔREEL Q457R (PTRPLS-like mutant) (from UniProt Q6Y288 1-498) (enzyme)
8.04 µM | human B3GLCTΔREEL T179S (PTRPLS-like mutant) (from UniProt Q6Y288 1-498) (enzyme)
6.65 µM | human B3GLCTΔREEL R337H (PTRPLS-like mutant) (from UniProt Q6Y288 1-498) (enzyme)
8.9 µM | human B3GLCT with the REEL motif removed (B3GLCTΔREEL), wild type (from UniProt Q6Y288 1-498) (enzyme)
6.64 µM | human B3GLCTΔREEL V245M (PTRPLS-like mutant) (from UniProt Q6Y288 1-498) (enzyme)

substrate: O=c1ccn([C@@H]2O[C@H](CO[P@@](=O)(O)O[P@@](=O)(O)O[C@H]3O[C@H](CO)[C@@H](O)[C@H](O)[C@H]3O)[C@@H](O)[C@H]2O)c(=O)[nH]1; experiment: UDP-Glo glycosyltransferase assay (UDP release, luminescence), Michaelis-Menten fit; format: biochemical; conditions: donor varied, acceptor Fuc-O-TSR3 (human thrombospondin-1 TSR3), 50 mM Tris/HCl pH 7.5, 37 °C, 20 min, no metal added
Text: UDP-Glo glycosyltransferase assay (UDP release, luminescence), Michaelis-Menten fit on B3GLCTΔREEL (human B3GLCT without REEL motif)

Molecule | Km | Vmax | kcat
B1 | 25.47 µM | 0.0432 µmol/min/mg | 0.0403 s⁻¹
B2 | 17.39 µM | 0.0236 µmol/min/mg | 0.022 s⁻¹
B3 | 18.74 µM | 0.0246 µmol/min/mg | 0.023 s⁻¹
B4 | 21.89 µM | 0.0277 µmol/min/mg | 0.0258 s⁻¹
B5 | 20.94 µM | 0.0324 µmol/min/mg | 0.0303 s⁻¹
